# Source: patent publication US20220204580A1 (AstraZeneca / MedImmune, published 2022)
# Numbered stars: 1 amine (or outer) side, 2 acyl side, 3 side chain; on linkers, the order of the positions; unused ones are H or OH. Bridge positions count the residues as written; N and C are the ends. Square brackets hold non-standard residues; d marks the D form. Side chains are listed from the residue outwards. Ends that are not written are not given here. * marks the point of attachment. C18 diacid = O=C(O)CCCCCCCCCCCCCCCCC(=O)*; γGlu = O=C(O)[C@H](CCC(=O)[*:2])N[*:1]; αMeF = C[C@](N)(Cc1ccccc1)C(=O)O; αMeS = C[C@](N)(CO)C(=O)O; Dab = NCC[C@H](N)C(=O)O; AEEA = NCCOCCOCC(=O)O; Aib = CC(C)(N)C(=O)O
# T1: human calcitonin receptor (human, UniProt P30988 25-474)
# T1 sequence (looked up): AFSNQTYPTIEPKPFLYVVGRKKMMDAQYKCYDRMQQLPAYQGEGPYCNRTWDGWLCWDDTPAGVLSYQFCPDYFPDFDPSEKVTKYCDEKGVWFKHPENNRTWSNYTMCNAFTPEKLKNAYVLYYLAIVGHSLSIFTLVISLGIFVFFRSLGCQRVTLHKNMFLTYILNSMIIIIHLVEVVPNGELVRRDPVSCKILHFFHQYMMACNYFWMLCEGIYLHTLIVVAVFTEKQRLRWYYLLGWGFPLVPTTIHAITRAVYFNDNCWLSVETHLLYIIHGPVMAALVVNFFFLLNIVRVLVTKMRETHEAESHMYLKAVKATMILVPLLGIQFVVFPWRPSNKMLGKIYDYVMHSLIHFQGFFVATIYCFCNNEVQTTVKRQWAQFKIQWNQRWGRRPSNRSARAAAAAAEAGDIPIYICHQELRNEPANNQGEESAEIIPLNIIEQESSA
# T2: human amylin receptor (calcitonin receptor co-expressed with receptor activity modifying protein, RAMP3) (human, UniProt P30988 25-474; O60896 24-148)
# T2 sequence (looked up) 1: T1 sequence (looked up)
# T2 sequence (looked up) 2: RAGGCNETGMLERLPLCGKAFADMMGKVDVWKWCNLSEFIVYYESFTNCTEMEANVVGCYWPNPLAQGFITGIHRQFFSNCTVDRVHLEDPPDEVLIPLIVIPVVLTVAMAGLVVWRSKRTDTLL
# B1: Peptide 23 (SEQ ID NO: 23) (peptide)
# peptide: K([γGlu-γGlu-C18 diacid])CNTATCATQRLANFLVHSSNN[αMeF]GPILPPTEVGSNTY-NH2
# modifications: disulfide 2-7; N-terminus assumed
# SMILES: CC[C@H](C)[C@H](NC(=O)[C@@H]1CCCN1C(=O)CNC(=O)[C@](C)(Cc1ccccc1)NC(=O)[C@H](CC(N)=O)NC(=O)[C@H](CC(N)=O)NC(=O)[C@H](CO)NC(=O)[C@H](CO)NC(=O)[C@H](Cc1c[nH]cn1)NC(=O)[C@@H](NC(=O)[C@H](CC(C)C)NC(=O)[C@H](Cc1ccccc1)NC(=O)[C@H](CC(N)=O)NC(=O)[C@H](C)NC(=O)[C@H](CC(C)C)NC(=O)[C@H](CCCNC(=N)N)NC(=O)[C@H](CCC(N)=O)NC(=O)[C@@H](NC(=O)[C@H](C)NC(=O)[C@@H]1CSSC[C@H](NC(=O)[C@@H](N)CCCCNC(=O)CC[C@H](NC(=O)CC[C@H](NC(=O)CCCCCCCCCCCCCCCCC(=O)O)C(=O)O)C(=O)O)C(=O)N[C@@H](CC(N)=O)C(=O)N[C@@H]([C@@H](C)O)C(=O)N[C@@H](C)C(=O)N[C@@H]([C@@H](C)O)C(=O)N1)[C@@H](C)O)C(C)C)C(=O)N[C@@H](CC(C)C)C(=O)N1CCC[C@H]1C(=O)N1CCC[C@H]1C(=O)N[C@H](C(=O)N[C@@H](CCC(=O)O)C(=O)N[C@H](C(=O)NCC(=O)N[C@@H](CO)C(=O)N[C@@H](CC(N)=O)C(=O)N[C@H](C(=O)N[C@@H](Cc1ccc(O)cc1)C(N)=O)[C@@H](C)O)C(C)C)[C@@H](C)O
# B2: Peptide 19 (SEQ ID NO: 19) (peptide)
# peptide: K([γGlu-C18 diacid])CNTATCATQRLANFLRHSSNN[αMeF]GPILPPTNVGSNTY-NH2
# modifications: disulfide 2-7; N-terminus assumed
# SMILES: CC[C@H](C)[C@H](NC(=O)[C@@H]1CCCN1C(=O)CNC(=O)[C@](C)(Cc1ccccc1)NC(=O)[C@H](CC(N)=O)NC(=O)[C@H](CC(N)=O)NC(=O)[C@H](CO)NC(=O)[C@H](CO)NC(=O)[C@H](Cc1c[nH]cn1)NC(=O)[C@H](CCCNC(=N)N)NC(=O)[C@H](CC(C)C)NC(=O)[C@H](Cc1ccccc1)NC(=O)[C@H](CC(N)=O)NC(=O)[C@H](C)NC(=O)[C@H](CC(C)C)NC(=O)[C@H](CCCNC(=N)N)NC(=O)[C@H](CCC(N)=O)NC(=O)[C@@H](NC(=O)[C@H](C)NC(=O)[C@@H]1CSSC[C@H](NC(=O)[C@@H](N)CCCCNC(=O)CC[C@H](NC(=O)CCCCCCCCCCCCCCCCC(=O)O)C(=O)O)C(=O)N[C@@H](CC(N)=O)C(=O)N[C@@H]([C@@H](C)O)C(=O)N[C@@H](C)C(=O)N[C@@H]([C@@H](C)O)C(=O)N1)[C@@H](C)O)C(=O)N[C@@H](CC(C)C)C(=O)N1CCC[C@H]1C(=O)N1CCC[C@H]1C(=O)N[C@H](C(=O)N[C@@H](CC(N)=O)C(=O)N[C@H](C(=O)NCC(=O)N[C@@H](CO)C(=O)N[C@@H](CC(N)=O)C(=O)N[C@H](C(=O)N[C@@H](Cc1ccc(O)cc1)C(N)=O)[C@@H](C)O)C(C)C)[C@@H](C)O
# B3: Peptide 21 (SEQ ID NO: 21) (peptide)
# peptide: K([γGlu-γGlu-C18 diacid])CNTATCATQRLANFLVHSSNN[αMeF]GPILPPTNVGSRTY-NH2
# modifications: disulfide 2-7; N-terminus assumed
# SMILES: CC[C@H](C)[C@H](NC(=O)[C@@H]1CCCN1C(=O)CNC(=O)[C@](C)(Cc1ccccc1)NC(=O)[C@H](CC(N)=O)NC(=O)[C@H](CC(N)=O)NC(=O)[C@H](CO)NC(=O)[C@H](CO)NC(=O)[C@H](Cc1c[nH]cn1)NC(=O)[C@@H](NC(=O)[C@H](CC(C)C)NC(=O)[C@H](Cc1ccccc1)NC(=O)[C@H](CC(N)=O)NC(=O)[C@H](C)NC(=O)[C@H](CC(C)C)NC(=O)[C@H](CCCNC(=N)N)NC(=O)[C@H](CCC(N)=O)NC(=O)[C@@H](NC(=O)[C@H](C)NC(=O)[C@@H]1CSSC[C@H](NC(=O)[C@@H](N)CCCCNC(=O)CC[C@H](NC(=O)CC[C@H](NC(=O)CCCCCCCCCCCCCCCCC(=O)O)C(=O)O)C(=O)O)C(=O)N[C@@H](CC(N)=O)C(=O)N[C@@H]([C@@H](C)O)C(=O)N[C@@H](C)C(=O)N[C@@H]([C@@H](C)O)C(=O)N1)[C@@H](C)O)C(C)C)C(=O)N[C@@H](CC(C)C)C(=O)N1CCC[C@H]1C(=O)N1CCC[C@H]1C(=O)N[C@H](C(=O)N[C@@H](CC(N)=O)C(=O)N[C@H](C(=O)NCC(=O)N[C@@H](CO)C(=O)N[C@@H](CCCNC(=N)N)C(=O)N[C@H](C(=O)N[C@@H](Cc1ccc(O)cc1)C(N)=O)[C@@H](C)O)C(C)C)[C@@H](C)O
# B4: Peptide 17 (SEQ ID NO: 17) (peptide)
# peptide: K([AEEA-AEEA-γGlu-C18 diacid])CNTATCATQRLANFLRHSSNN[αMeF]GPILPPTEVGSNTY-NH2
# modifications: disulfide 2-7; N-terminus assumed
# SMILES: CC[C@H](C)[C@H](NC(=O)[C@@H]1CCCN1C(=O)CNC(=O)[C@](C)(Cc1ccccc1)NC(=O)[C@H](CC(N)=O)NC(=O)[C@H](CC(N)=O)NC(=O)[C@H](CO)NC(=O)[C@H](CO)NC(=O)[C@H](Cc1c[nH]cn1)NC(=O)[C@H](CCCNC(=N)N)NC(=O)[C@H](CC(C)C)NC(=O)[C@H](Cc1ccccc1)NC(=O)[C@H](CC(N)=O)NC(=O)[C@H](C)NC(=O)[C@H](CC(C)C)NC(=O)[C@H](CCCNC(=N)N)NC(=O)[C@H](CCC(N)=O)NC(=O)[C@@H](NC(=O)[C@H](C)NC(=O)[C@@H]1CSSC[C@H](NC(=O)[C@@H](N)CCCCNC(=O)COCCOCCNC(=O)COCCOCCNC(=O)CC[C@H](NC(=O)CCCCCCCCCCCCCCCCC(=O)O)C(=O)O)C(=O)N[C@@H](CC(N)=O)C(=O)N[C@@H]([C@@H](C)O)C(=O)N[C@@H](C)C(=O)N[C@@H]([C@@H](C)O)C(=O)N1)[C@@H](C)O)C(=O)N[C@@H](CC(C)C)C(=O)N1CCC[C@H]1C(=O)N1CCC[C@H]1C(=O)N[C@H](C(=O)N[C@@H](CCC(=O)O)C(=O)N[C@H](C(=O)NCC(=O)N[C@@H](CO)C(=O)N[C@@H](CC(N)=O)C(=O)N[C@H](C(=O)N[C@@H](Cc1ccc(O)cc1)C(N)=O)[C@@H](C)O)C(C)C)[C@@H](C)O
# B5: Peptide 156 (SEQ ID NO: 156) (peptide)
# peptide: K([γGlu-C18 diacid])KCNTATCATQRLA[Dab]FL[Aib]HSSNNFGPILPPTEVGSNTY-NH2
# modifications: disulfide 3-8; N-terminus assumed
# SMILES: CC[C@H](C)[C@H](NC(=O)[C@@H]1CCCN1C(=O)CNC(=O)[C@H](Cc1ccccc1)NC(=O)[C@H](CC(N)=O)NC(=O)[C@H](CC(N)=O)NC(=O)[C@H](CO)NC(=O)[C@H](CO)NC(=O)[C@H](Cc1c[nH]cn1)NC(=O)C(C)(C)NC(=O)[C@H](CC(C)C)NC(=O)[C@H](Cc1ccccc1)NC(=O)[C@H](CCN)NC(=O)[C@H](C)NC(=O)[C@H](CC(C)C)NC(=O)[C@H](CCCNC(=N)N)NC(=O)[C@H](CCC(N)=O)NC(=O)[C@@H](NC(=O)[C@H](C)NC(=O)[C@@H]1CSSC[C@H](NC(=O)[C@H](CCCCN)NC(=O)[C@@H](N)CCCCNC(=O)CC[C@H](NC(=O)CCCCCCCCCCCCCCCCC(=O)O)C(=O)O)C(=O)N[C@@H](CC(N)=O)C(=O)N[C@@H]([C@@H](C)O)C(=O)N[C@@H](C)C(=O)N[C@@H]([C@@H](C)O)C(=O)N1)[C@@H](C)O)C(=O)N[C@@H](CC(C)C)C(=O)N1CCC[C@H]1C(=O)N1CCC[C@H]1C(=O)N[C@H](C(=O)N[C@@H](CCC(=O)O)C(=O)N[C@H](C(=O)NCC(=O)N[C@@H](CO)C(=O)N[C@@H](CC(N)=O)C(=O)N[C@H](C(=O)N[C@@H](Cc1ccc(O)cc1)C(N)=O)[C@@H](C)O)C(C)C)[C@@H](C)O
# Target: T1, human calcitonin receptor
# Assay: cell-based or functional assay
row,EC50 (cAMP production) [nM],Binder
1,0.589,B1
2,4.04,B2
3,7.53,{C18 diacid}-[γGlu][γGlu]GGGKCNTATCATQRLANFLVHSSNNFGPILPPTNVGSNTY-NH2 (disulfide 7-12) [Peptide 4 (SEQ ID NO: 4)]
4,3.41,B3
5,7.08,B4
6,83.8,B5
7,6.54,K([γGlu-γGlu-C18 diacid])CNTATCATQRLANFLVHS[αMeS]NNFGPILPPTNVGSNTY-NH2 (disulfide 2-7) [Peptide 22 (SEQ ID NO: 22)]

# Target: T2, human amylin receptor (calcitonin …)
# Assay: cell-based or functional assay
EC50 (cAMP production) [nM],Ratio (EC50 hCTR / EC50 hAMYR3),Binder
0.238,2,B1
0.278,15,B2
0.248,30,{C18 diacid}-[γGlu][γGlu]GGGKCNTATCATQRLANFLVHSSNNFGPILPPTNVGSNTY-NH2 (disulfide 7-12) [Peptide 4 (SEQ ID NO: 4)]
0.136,25,B3
0.365,19,B4
3.75,22.3,B5
0.162,40,K([γGlu-γGlu-C18 diacid])CNTATCATQRLANFLVHS[αMeS]NNFGPILPPTNVGSNTY-NH2 (disulfide 2-7) [Peptide 22 (SEQ ID NO: 22)]
